Source: doi:10.1101/2024.02.25.581584 (bioRxiv, 2024)

How the values were obtained:
CENP-T^site1 [1] = biological target: T1, CENP-T^site1 (human, UniProt Q96BT3 1-242, T11D | deletion of amino acids from 76 to 106); assay: TIRF microscopy of single molecules
[2] = biological target: T2, CENP-T^6D (CENP-T^6D-GFP-Spy-tag) (human, UniProt Q96BT3 1-242, T11D | T27D | S47D | T85D | T195D | S201D); assay: TIRF microscopy of single molecules
CENP-T^site1 [3] = biological target: T1, CENP-T^site1; assay: TIRF microscopy of single molecules; remark: listed apart in the source
CENP-T^site2 = CENP-T^site2 (human, UniProt Q96BT3 1-242, T85D | deletion of amino acids from 2 to 30); assay: TIRF microscopy of single molecules
[4] = biological target: T2, CENP-T^6D (CENP-T^6D-GFP-Spy-tag); assay: TIRF microscopy of clusters
CENP-T^2D [5] = biological target: T3, CENP-T^2D (human, UniProt Q96BT3 1-242, T11D | T85D); assay: TIRF microscopy of clusters
CENP-T^2D [6] = biological target: T3, CENP-T^2D; assay: fluorescence correlation spectroscopy

fold reduction of kon of site 1 against CENP-T^2D and CENP-T^6D (model fit) (CENP-T^site1 [1]) [fold] | stoichiometry N [2] | stoichiometry N (CENP-T^site1 [3]) | stoichiometry N (CENP-T^site2) | stoichiometry N [4] | binding result (CENP-T^2D [5]) | binding result (CENP-T^2D [6]) | Binder
8 | ~2 Ndc80 molecules per CENP-T | ~1 Ndc80 molecules per CENP-T | ~1 Ndc80 molecules per CENP-T | ≤ 2 Ndc80 molecules per CENP-T | binds |  | Human Bonsai Ndc80 complex with C-terminal GFP (complex) chain 1: MKRSSVSSGGAGRLSMQELRSQDVNKQGLYTPQTKEKPTFGKLSINKPTSERKVSLFGKRTSGHGSRNSQLGIFSSSEKIKDPRPLNDKAFIQQCIRQLCEFLTENGYAHNVSMKSLQAPSVKDFLKIFTFLYGFLCPSYELPDTKFEEEVPRIFKDLGYPFALSKSSMYTVGAPHTWPHIVAALVWLIDCIKIHTAMKESSPLFDDGQPWGEETEDGIMHNKLFLDYTIKCYESFMSGADSFDEMNAELQSKLKDLFNVDAFKLESLEAKNRALNEQIARLEQERSTANKANAERLKRLQKSADLYKDRLGLEIRKIYGEKLQFIFTNIDPKNPESPFMFSLHLNEARDYEVSDSAPHLEGLAEFQENVRKTNNFSAFLANVRKAFTATVYN chain 2: METLSFPRYNVAEIVIHIRNKILTGADGKNLTKNDLYPNPKPEVLHMIYMRALQIVYGIRLEHFYMMPVNSEVMYPHLMEGFLPFSNLVTHLDSFLPICRVNDFETADILCPKAKRTSRFLSGIINFIHFREACRETYMEFLWQYKSSADKMQQLNAAHQEALMKLERLEKEVDEDTTVTIPSAVYVAQLYHQVSKIEWDYECEPGMVKGIHHGPSVAQPIHLDSTQLSRKFISDYLWSLVDTEW
 |  |  |  |  |  | binds | Human Bonsai Ndc80 complex, untagged (complex) chain 1: MKRSSVSSGGAGRLSMQELRSQDVNKQGLYTPQTKEKPTFGKLSINKPTSERKVSLFGKRTSGHGSRNSQLGIFSSSEKIKDPRPLNDKAFIQQCIRQLCEFLTENGYAHNVSMKSLQAPSVKDFLKIFTFLYGFLCPSYELPDTKFEEEVPRIFKDLGYPFALSKSSMYTVGAPHTWPHIVAALVWLIDCIKIHTAMKESSPLFDDGQPWGEETEDGIMHNKLFLDYTIKCYESFMSGADSFDEMNAELQSKLKDLFNVDAFKLESLEAKNRALNEQIARLEQERSTANKANAERLKRLQKSADLYKDRLGLEIRKIYGEKLQFIFTNIDPKNPESPFMFSLHLNEARDYEVSDSAPHLEGLAEFQENVRKTNNFSAFLANVRKAFTATVYN chain 2: METLSFPRYNVAEIVIHIRNKILTGADGKNLTKNDLYPNPKPEVLHMIYMRALQIVYGIRLEHFYMMPVNSEVMYPHLMEGFLPFSNLVTHLDSFLPICRVNDFETADILCPKAKRTSRFLSGIINFIHFREACRETYMEFLWQYKSSADKMQQLNAAHQEALMKLERLEKEVDEDTTVTIPSAVYVAQLYHQVSKIEWDYECEPGMVKGIHHGPSVAQPIHLDSTQLSRKFISDYLWSLVDTEW
